For data set [1], the system named is HeLa Kyoto. As to the kind of experiment: thermal stability score vs G1/S (z-score of summed log2 fold changes over temperatures); higher = more thermally stable than in G1/S.
The test system of data set [2] is HeLa Kyoto. As to the kind of experiment: solubility in G1/S (NP-40 vs SDS abundance) (log2 ratio); higher = more soluble. To be noted: cell cycle stage: G1/S.
Data set [3] deals with HeLa Kyoto. As to the kind of experiment: melting temperature (median over replicates), in situ; higher = more thermally stable.
Data set [4] relates to HeLa Kyoto. As to the kind of experiment: solubility change mitosis vs G1/S (difference of NP-40 vs SDS log2 ratios) (log2 ratio difference); higher = more soluble in mitosis.
The mark [5] stands for this setting: cell cycle stage: early G1 (4.5 h after nocodazole release).
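Throughout, for melting temperature (median over replicates), in situ: HeLa Kyoto cells synchronized by double thymidine or nocodazole block, proteins quantified by TMT10plex mass spectrometry, three independent biological replicates.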
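Throughout, for solubility change mitosis vs G1/S (difference of NP-40 vs SDS log2 ratios): synchronized HeLa Kyoto cells (double thymidine block for G1/S, nocodazole release for mitosis), protein amounts in NP-40 versus SDS lysates quantified by mass spectrometry, three biological replicates.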
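Throughout, for solubility in G1/S (NP-40 vs SDS abundance): HeLa Kyoto cells arrested at G1/S by double thymidine block, proteins quantified by TMT10plex mass spectrometry in mild NP-40 versus SDS extracts, three biological replicates.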
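Throughout, for thermal stability score vs G1/S (z-score of summed log2 fold changes over temperatures): synchronized HeLa Kyoto cells, proteins quantified by TMT10plex mass spectrometry, three biological replicates, mitosis taken 0.5 h after nocodazole release, G1/S directly after double thymidine block.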

As for “MAAQRPLRVLCLAGFRQSERGFREKTGALRKALRGRAELVCLSGPHPVPDPPGPEGARSDFGSCPPEEQPRGWWFSEQEADVFSALEEPAVCRGLEESLGMVAQALNRLGPFDGLLGFSQGAALAALVCALGQAGDPRFPLPRFILLVSGFCPRGIGFKESILQRPLSLPSLHVFGDTDKVIPSQESVQLASQFPGAITLTHSGGHFIPAAAPQRQAYLKFLDQFAE [OVCA2]”, the thermal stability score was -1.18 in data set [1] (setting [5]) and -0.0698 in data set [1] (cell cycle stage: mitosis). Also, the “solubility in G1/S (log2)” value in data set [2] came to 0.171. Also, the melting temperature was determined as 49.8 °C in data set [3] (cell cycle stage: G1/S) and 51.5 °C in data set [3] (cell cycle stage: mitosis). The “solubility change mitosis (log2)” value in data set [4] was 0.0456.

With TOP2B, the thermal stability score in data set [1] (setting [5]) was 0.414; in data set [1] (cell cycle stage: mitosis) it was 1.45. In addition, the “solubility in G1/S (log2)” value in data set [2] was -2.12. The values for the melting temperature in data set [3] (cell cycle stage: G1/S) and in data set [3] (cell cycle stage: mitosis) were 52.2 °C and 51.6 °C, respectively. The “solubility change mitosis (log2)” value in data set [4] came out at 0.675.

With “MGDAKEAGAEGPPAGAAARGGLSLLSQGESEESSAQGSALFLGGNEVKSRAVVKYSSAPPRTAFARLEEKTDLKLPPANWLRESAKLGPAGTTILGNSKKSKPFSSFGMAYDFIDSVGNDVDVVSDSENIKKLLKIPYSKSHVSMAVHRIGRTLLLDELDIQELFMRSSQTGDWTWLKEFYQRLIDQKWQRKKKSKEHWYQKAILSKFLYYSINGDGAAQPVSSTAEQQESSSSDQTNDSEGASWPAPFEMPSSVSEDPSASSQGSEPLEPSYIVGHVASAPKEQNLITLFNDGEHSQGLKNDFVRNILWTFEDIHMLVGSNMPIFGGGRYPAVSLRLRDNNKPINVLTGIDYWLDNLICNVPELVMCFHVNGIVQKYEMIKTEEIPNLENSNFSTKVIKDIAQNILSFLKSNCTKEGHTYWLFKASGSDIVKLYDLTTLCEETEDKYQNPFTMPVAILLYKVACNMMMKKNQNKKHYGTIRTLLLNCLKLLDKSRHPQIIASANYMLSELFQLDEPKKEENSESPLNENSDESYSEEEEEMPDSDENGSYSTSSDPSDDSKAVAIIKSVGELSVPEKYKSIHQIRPSCAFPVCHDTEERCRLVLSYVLEGLKSVDSSIKKESDLPAADPSTPIPLKYEDESSRGGPEGLEKQMALFLDKMGSLQKGNYSSQSGMIPGSWQHKMKLQLILKSSKAYYVLSDAAMSLQKYGRALRYIKLALQSHDTYCCLCTNMLSEVLLFLSQYLTLCGDIQLMLAQNANNRAAHLEEFHYQTKEDQEILHSLHRESSCQGFAWATDLSTDLESQLSVSCKCYEAANEILQFSDLKSQNPEHYVQVLKRMGNIRNEIGVFYMNQAAALQSERLVSKSVSAAEQQLWKKSFSCFEKGIHNFESIEDATNAALLLCNTGRLMRICAQAHCGAGDELKREFSPEEGLYYNKAIDYYLKALRSLGTRDIHPAVWDSVNWELSTTYFTMATLQQDYAPLSRKAQEQIEKEVSEAMMKSLKYCDVDSVSARQPLCQYRAATIHHRLASMYHSCLRNQVGDEHLRKQHRVLADLHYSKAAKLFQLLKDAPCELLRVQLERVAFAEFQMTSQNSNVGKLKTLSGALDIMVRTEHAFQLIQKELIEEFGQPKSGDAAAAADASPSLNREEVMKLLSIFESRLSFLLLQSIKLLSSTKKKTSNNIEDDTILKTNKHIYSQLLRATANKTATLLERINVIVHLLGQLAAGSAASSNAVQ [EDRF1]”, the thermal stability score in data set [1] (setting [5]) is 0.416; in data set [1] (cell cycle stage: mitosis), -0.168. Also, in data set [2], the “solubility in G1/S (log2)” value is -0.026. Further, the melting temperature in data set [3] (cell cycle stage: G1/S) turned out to be 51 °C; in data set [3] (cell cycle stage: mitosis), 49.3 °C. Moreover, the “solubility change mitosis (log2)” value in data set [4] is -0.0878.

For “MDYRRLLMSRVVPGQFDDADSSDSENRDLKTVKEKDDILFEDLQDNVNENGEGEIEDEEEEGYDDDDDDWDWDEGVGKLAKGYVWNGGSNPQANRQTSDSSSAKMSTPADKVLRKFENKINLDKLNVTDSVINKVTEKSRQKEADMYRIKDKADRATVEQVLDPRTRMILFKMLTRGIITEINGCISTGKEANVYHASTANGESRAIKIYKTSILVFKDRDKYVSGEFRFRHGYCKGNPRKMVKTWAEKEMRNLIRLNTAEIPCPEPIMLRSHVLVMSFIGKDDMPAPLLKNVQLSESKARELYLQVIQYMRRMYQDARLVHADLSEFNMLYHGGGVYIIDVSQSVEHDHPHALEFLRKDCANVNDFFMRHSVAVMTVRELFEFVTDPSITHENMDAYLSKAMEIASQRTKEERSSQDHVDEEVFKRAYIPRTLNEVKNYERDMDIIMKLKEEDMAMNAQQDNILYQTVTGLKKDLSGVQKVPALLENQVEERTCSDSEDIGSSECSDTDSEEQGDHARPKKHTTDPDIDKKERKKMVKEAQREKRKNKIPKHVKKRKEKTAKTKKGK [RIOK1]”, the thermal stability score was 1.87 in data set [1] (setting [5]) and 1.28 in data set [1] (cell cycle stage: mitosis). Moreover, in data set [2], the “solubility in G1/S (log2)” value is -0.18. The melting temperature was found to be 52.3 °C in data set [3] (cell cycle stage: G1/S) and 54.8 °C in data set [3] (cell cycle stage: mitosis). In addition, the “solubility change mitosis (log2)” value in data set [4] worked out at 0.0777.

Regarding “MGLTVSALFSRIFGKKQMRILMVGLDAAGKTTILYKLKLGEIVTTIPTIGFNVETVEYKNICFTVWDVGGQDKIRPLWRHYFQNTQGLIFVVDSNDRERVQESADELQKMLQEDELRDAVLLVFANKQDMPNAMPVSELTDKLGLQHLRSRTWYVQATCATQGTGLYDGLDWLSHELSKR [ARF5]”, the thermal stability score in data set [1] (setting [5]) stood at 1.02; in data set [1] (cell cycle stage: mitosis), 1.14. Further, the “solubility in G1/S (log2)” value in data set [2] was -0.196. The values for the melting temperature in data set [3] (cell cycle stage: G1/S) and in data set [3] (cell cycle stage: mitosis) were 55.4 °C and 55.9 °C, respectively. Besides, the “solubility change mitosis (log2)” value in data set [4] was -0.212.

Take PPIF: the figures for the thermal stability score in data set [1] (setting [5]) and in data set [1] (cell cycle stage: mitosis) were 0.427 and -1.83, respectively. Moreover, the “solubility in G1/S (log2)” value in data set [2] was determined as 0.731. Also, the results for the melting temperature in data set [3] (cell cycle stage: G1/S) and in data set [3] (cell cycle stage: mitosis) were 52.2 °C and 52.1 °C, respectively. The “solubility change mitosis (log2)” value in data set [4] is 0.14.

With “MSGGLLKALRSDSYVELSQYRDQHFRGDNEEQEKLLKKSCTLYVGNLSFYTTEEQIYELFSKSGDIKKIIMGLDKMKKTACGFCFVEYYSRADAENAMRYINGTRLDDRIIRTDWDAGFKEGRQYGRGRSGGQVRDEYRQDYDAGRGGYGKLAQNQ [NCBP2]”, the thermal stability score in data set [1] (setting [5]) was -0.145; in data set [1] (cell cycle stage: mitosis), -1.78. The “solubility in G1/S (log2)” value in data set [2] is -0.118. Further, the melting temperature stood at 51.4 °C in data set [3] (cell cycle stage: G1/S) and 51.8 °C in data set [3] (cell cycle stage: mitosis). Further, in data set [4], the “solubility change mitosis (log2)” value is 0.26.

The values above are taken from the supplement of paper PMC5998384.
